Data on 1 molecule can be found in US20140302123A1 (INSTITUT PASTEUR, published 2014).

Assay [1] concerns the target T1, Cyto13-vir (rabies virus (CVS-NIV RABV strain)). Nature of the assay: NMR titration (rounded value in the text).
Assay [2] concerns the target T1, Cyto13-vir. Nature of the assay: NMR titration, 15N-labeled PTPN4-PDZ with unlabeled peptide.
Another assay has as its target DARL-13 (rabies virus (vampire bat RABV strain)). The assay is described as above.

B1: PTPN4-PDZ (residues G499-N604) (other)
chain: GSPEKPTPNGGIPHDNLVLIRMKPDENGRFGFNVKGGYDQKMPVIVSRVAPGTPADLCVPRLNEGDQVVLINGRDIAEHTHDQVVLFIKASCERHSGELMLLVRPN
notes: range 500-604; also called PDZ of PTPN4; PTPN4 PDZ domain
As a reminder, the Kd is the concentration at which binding is half-saturated. As to B1, the equilibrium dissociation constant (Kd) with Cyto13-vir [1] worked out at 560 µM; in the assay with Cyto13-vir [2], 568 µM; in the assay with DARL-13, 1.28 mM.
